# Literature values in US7338947B2, “Cyclic derivatives as modulators of chemokine receptor activity” (Bristol-Myers Squibb Co., priority 2003, dated 2008).
# Test system: MCP-1 expression in peripheral blood mononuclear cells
# Settings: human multiple sclerosis, effective therapy
molecule,measurement,value
"interferon b-1b: interferon b-1b, effective therapy in human multiple sclerosis (protein, UniProt P01574 22-187, looked up, variant C17S, interferon beta-1b) Interferon beta: MSYNLLGFLQRSSNFQSQKLLWQLNGRLEYCLKDRMNFDIPEEIKQLQQFQKEDAALTIYEMLQNIFAIFRQDSSSTGWNETIVENLLANVYHQINHLKTVLEEKLEKEDFTRGKLMSSLHLKRYYGRILHYLKAKEYSHCAWTIVRVEILRNFYFINRLTGYLRN",MCP-1 expression in peripheral blood mononuclear cells,reduces MCP-1 expression
